# “And” between values parts separate entries of the source, which are not always exact repeats. Identical values can stand only once.
# B1: Ranpirnase (protein, UniProt P22069 1-104, looked up)
# Protein P-30: QDWLTFQKKHITNTRDVDCDNIMSTNLFHCKDKNTFIYSRPEPVKAICKGIIASKNVLTTSEFYLSDCNVTSRPCKYKLKKSTNKFCVTCENQAPVHFVGVGSC
# notes: amphibian ribonuclease originally isolated from oocytes and/or early embryos of Rana pipiens; pancreatic ribonuclease (RNase A) superfamily, about 12 kD
# Assays:
# [1] = test system: Human Adenovirus 8 (Ad8 strain 13306); assay: Neutral red lysosomal uptake assay, Adenovirus 8; assay type: cell-based; settings: Adenovirus 8, MA-104 cells
# Experimental: To assess in vitro cytotoxicity, both a cytopathic effects of a virus (CPE) regression assay and a neutral red lysosomal uptake cell viability assay was performed essentially as described in, e.g., Repetto, et al., Neutral Red Uptake Assay for the Estimation of Cell Viability/Cytotoxicity, Nat. Protoc. 3: 1125-1131 (2008), the content of which is hereby incorporated by reference in its entirety. Ninety-six-well plates were seeded with MA-104 cells at 1×10^5 cells/mL and incubated overnight at 37° C. with 5% CO2. […] Each dilution was added to 5 wells of a 96-well plate with 80% to 100% confluent cells, and three wells of each dilution were then infected with one of the two test viruses. Two wells remained uninfected as controls for toxicity. Six wells per plate were set aside as uninfected, untreated cell controls, and six wells per plate were infected with no treatment as virus controls. […] Assay plates were incubated at 37° C. with 5% CO2. […] After CPE reduction assay was completed, a neutral red lysosomal uptake assay was conducted by filling each well with 0.011% (m/v) neutral red, a vital stain. The plates then were incubated for about 2 hours at 37° C. in the dark. […] The plates were then read on a spectrophotometer at 540 nm to quantify the neutral red taken up by the healthy cells. […]
# A549 cells = assay: In vitro cytotoxicity, ALAMARBLUE fluorometric stain; assay type: cell-based; settings: 2 days
# Experimental: Ophthalmol. Vis. Sci. 50: 5295-5299 (2009), which is hereby incorporated by reference in its entirety.
# To assess in vitro cytotoxicity, 96-well plates were seeded with A549 cells at 1×10^5 cells/mL and incubated overnight at 37° C. with 5% CO2. […] After removal of the tissue culture media, 100 μL of each dilution was added to 3 wells of a 96-well plate with 80% to 100% confluent cells. […] Each test and control treatment was incubated on the A549 monolayers for 2 days at 37° C. with 5% CO2. A 100 μL aliquot of the fluorometric stain was then added to each well, and the cells incubated for 1 hour at 37° C. with 5% CO2. The fluorometric stain (ALAMARBLUE®, Invitrogen, Carlsbad, Calif.) acts as a redox indicator that is reduced to a fluorescent form by metabolically active living cells. Fluorescence was then be read with a plate reader (Biotek Synergy 2; Biotek), with a 500/27-nm excitation filter and a 620/40-nm emission filter, at a sensitivity of 35.
# [2] = test system: Human Adenovirus 5 (AD5 strain NYS #98-1836); assay: microbe, parasite or virus in culture; assay type: cell-based; settings: Adenovirus 5, MA-104 cells
# Experimental: To assess in vitro cytotoxicity, both a cytopathic effects of a virus (CPE) regression assay and a neutral red lysosomal uptake cell viability assay was performed essentially as described in, e.g., Repetto, et al., Neutral Red Uptake Assay for the Estimation of Cell Viability/Cytotoxicity, Nat. Protoc. 3: 1125-1131 (2008), the content of which is hereby incorporated by reference in its entirety. Ninety-six-well plates were seeded with MA-104 cells at 1×10^5 cells/mL and incubated overnight at 37° C. with 5% CO2. […] Each dilution was added to 5 wells of a 96-well plate with 80% to 100% confluent cells, and three wells of each dilution were then infected with one of the two test viruses. Two wells remained uninfected as controls for toxicity. Six wells per plate were set aside as uninfected, untreated cell controls, and six wells per plate were infected with no treatment as virus controls. […] Assay plates were incubated at 37° C. with 5% CO2. […] After CPE reduction assay was completed, a neutral red lysosomal uptake assay was conducted by filling each well with 0.011% (m/v) neutral red, a vital stain. The plates then were incubated for about 2 hours at 37° C. in the dark. The unincorporated neutral red solution was removed from the wells and the incorporated dye was then eluted by adding Sorensen's citrate-buffered ethanol. The plates were then read on a spectrophotometer at 540 nm to quantify the neutral red taken up by the healthy cells. The optical density of test wells was converted to percent of cell control and normalized to the virus controls.
# (§1) The concentration of test compound required to inhibit CPE by 50% or reduce red uptake into cells by 50% (EC50) was calculated by regression analysis. The toxicity of the compound without virus present was similarly calculated using the uninfected wells treated with test compounds compared with untreated cell controls. The concentration of compound that would cause 50% cytotoxic effects in the absence of virus (CC50) was estimated by linear regression analysis. The selectivity index (SI) is the CC50 divided by EC50.
# [3] = Jones Dye test for nasolacrimal duct blockage; assay type: in vivo, NZW rabbit; settings: Day 21, all Ranpirnase concentrations
# Experimental: The animals were also assayed on day 21 for nasolacrimal duct blockage by performing a Jones Dye test. On Day 21, a drop of sodium fluorescein was placed in each eye and the time to the dye appearing in the ipsilateral nostril was measured.
# [4] = test system: Human Adenovirus 5 (AD5 strain NYS #98-1836); assay: Virus yield reduction assay, Adenovirus 5; assay type: cell-based
# Experimental: as §1
# (§2) The virus yield reduction assay was used to determine actual virus amounts in the presence and absence of the test compound; this is the confirmatory assay for antiviral activity. […] Replicate wells of each compound concentration or control were pooled and frozen at −80° C. Samples were thawed and diluted by 10-fold serial dilutions. A 100 μL aliquot of each dilution was then plated onto 4 replicate wells of 96-well plates seeded with the applicable cells for each virus strain. Plates were incubated as noted above until viral CPE reached its endpoint, then each well was scored microscopically for the presence of viral CPE. The virus titer was determined based on the endpoint using the Reed-Muench method. […]
# HIV-1 = settings: final concentrations that are not cytotoxic; cited from earlier work
# [5] = test system: Human Adenovirus 8 (Ad8 strain 13306); assay: Virus yield reduction assay, Adenovirus 8; assay type: cell-based
# Experimental: as §1, §2
molecule,measurement,setting,value
B1,Neutral Red Assay EC50,[1],<100 µg/mL
same,"% cytotoxicity, Mean","A549 cells; 0.001 μM, second experiment",3.2%
same,% cytotoxicity,"A549 cells; 0.001 μM, second experiment, single assays 1-3, 0.001 µM",5.7% and 2.3% and 1.6%
same,"% cytotoxicity, Mean","A549 cells; 0.01 μM, second experiment",7.4%
same,% cytotoxicity,"A549 cells; 0.01 μM, second experiment, single assays 1-3, 0.01 µM",8.6% and 11.7% and 7.9%
same,"% cytotoxicity, Mean","A549 cells; 0.1 μM, second experiment",5.8%
same,% cytotoxicity,"A549 cells; 0.1 μM, second experiment, single assays 1-3, 0.1 µM",6.0% and 5.3% and 6.1%
same,% cytotoxicity,"A549 cells; 1.0 μM, first experiment, single assays 1-3, 1 µM",60.9% and 61.3% and 63.7%
same,% cytotoxicity,"A549 cells; 1.0 μM, second experiment, single assays 1-3, 1 µM",11.1% and 14.6% and 18.1%
same,% cytotoxicity,"A549 cells; 10 μM, first experiment, single assays 1-3, 10 µM",65.7% and 66.5% and 67.1%
same,% cytotoxicity,"A549 cells; 10 μM, second experiment, single assays 1-3, 10 µM",29.1% and 32.7% and 37.3%
same,% cytotoxicity,"A549 cells; 50 μM, first experiment, single assays 1-3, 50 µM",75.1% and 74.0%
same,% cytotoxicity,"A549 cells; 50 μM, second experiment, single assays 1-3, 50 µM",86.7% and 86.4%
same,Neutral Red Assay EC50,[2],<100 µg/mL
same,"Blocked nasolacrimal ducts, Jones Dye test",[3],"no Ranpirnase treated rabbits, regardless of concentration, resulted in blocked nasolacrimal ducts"
same,Yield Reduction Assay EC50,[4],21.54 µg/mL
same,Inhibition of replication of HIV-1,HIV-1,up to 99.9%
same,Yield Reduction Assay EC50,[5],25.1 µg/mL

# — patent US9682130B2 (priority 2015, dated 2017)
